Values joined by “and” are separate entries in the source; they are usually repeats but may differ in a detail not shown here. Equal entries are not always repeated. Where two headings read alike, the source gives them in different places. Blank lines part the entries; values can stand above or below the substance they belong to.
What was measured:
[1] = molecular target: DIP-α (Drosophila melanogaster); assay: SPR; Biacore T100, CM4 chip; DIPs and DIP mutants immobilised by amine coupling (760-980 RU), Dprs and Dpr mutants as analytes (three-fold dilution series, up to 81 μM, in some cases up to 27 or 9 μM); 25 °C; 10 mM Tris-HCl pH 7.2, 150 mM NaCl, 1 mM EDTA, 1 mg/mL BSA, 0.01% Tween-20; equilibrium fit, 1:1 model; for KDs > 300 μM a lower limit is listed
[2] = molecular target: DIP-γ (Drosophila melanogaster); assay: as above
[3] = molecular target: DIP-α (Dpr Interacting Protein alpha), extracellular region (Drosophila melanogaster) (UniProt Q9W4R3); assay: SPR; Biacore T100, CM4 chip; DIPs and DIP mutants immobilised by amine coupling, Dprs as analytes; 25 °C; 10 mM Tris-HCl pH 7.2, 150 mM NaCl, 1 mM EDTA, 1 mg/mL BSA, 0.01% Tween-20; duplicate responses fit globally to a 1:1 model; Rmax fixed for KDs > 100 μM, lower limit listed for KDs > 300 μM
[4] = molecular target: DIP-α K10Q S32D, extracellular region (Drosophila melanogaster); assay: AUC; sedimentation equilibrium, 25 °C, 10 mM Bis-Tris pH 6.6, 150 mM NaCl, UV 280 nm, global fit (HeteroAnalysis); dimer to monomers; two runs (n 1, 2) and their average
[5] = molecular target: DIP-α K10Q G4S, extracellular region (Drosophila melanogaster); assay: as above
[6] = molecular target: DIP-α K10Q {K81Q}, extracellular region (Drosophila melanogaster) (UniProt Q9W4R3); assay: AUC; sedimentation equilibrium, 25 °C, 10 mM Bis-Tris pH 6.6, 150 mM NaCl, detection at 280 nm; global fit (HeteroAnalysis); dimer to monomers; mean of two independent measurements
[7] = molecular target: DIP-α K10Q, extracellular region (Drosophila melanogaster); assay: AUC; sedimentation equilibrium, 25 °C, 10 mM Bis-Tris pH 6.6, 150 mM NaCl, UV 280 nm, global fit (HeteroAnalysis); dimer to monomers; two runs (n 1, 2) and their average
[8] = molecular target: DIP-α K10Q S32D {K81Q S133D}, extracellular region (Drosophila melanogaster) (UniProt Q9W4R3); assay: AUC; sedimentation equilibrium, 25 °C, 10 mM Bis-Tris pH 6.6, 150 mM NaCl, detection at 280 nm; global fit (HeteroAnalysis); dimer to monomers; mean of two independent measurements
[9] = molecular target: DIP-β (isoformG), extracellular region (Drosophila melanogaster); assay: SPR; Biacore T100, CM4 chip; DIPs and DIP mutants immobilised by amine coupling, Dprs as analytes; 25 °C; 10 mM Tris-HCl pH 7.2, 150 mM NaCl, 1 mM EDTA, 1 mg/mL BSA, 0.01% Tween-20; duplicate responses fit globally to a 1:1 model; Rmax fixed for KDs > 100 μM, lower limit listed for KDs > 300 μM
[10] = molecular target: DIP-α (Dpr Interacting Protein alpha), extracellular region (Drosophila melanogaster) (UniProt Q9W4R3); assay: as above; remark: listed apart in the source
[11] = molecular target: DIP-γ (Dpr Interacting Protein gamma), extracellular region (Drosophila melanogaster) (UniProt Q9VAR6); assay: as above
[12] = molecular target: DIP-α K10Q G4S {K81Q G74S}, extracellular region (Drosophila melanogaster) (UniProt Q9W4R3); assay: AUC; sedimentation equilibrium, 25 °C, 10 mM Bis-Tris pH 6.6, 150 mM NaCl, detection at 280 nm; global fit (HeteroAnalysis); dimer to monomers; mean of two independent measurements
[13] = molecular target: DIP-α G4L {G74L}, extracellular region (Drosophila melanogaster) (UniProt Q9W4R3); assay: SPR; Biacore T100, CM4 chip; DIPs and DIP mutants immobilised by amine coupling, Dprs as analytes; 25 °C; 10 mM Tris-HCl pH 7.2, 150 mM NaCl, 1 mM EDTA, 1 mg/mL BSA, 0.01% Tween-20; duplicate responses fit globally to a 1:1 model; Rmax fixed for KDs > 100 μM, lower limit listed for KDs > 300 μM
[14] = molecular target: DIP-α G4A {G74A}, extracellular region (Drosophila melanogaster) (UniProt Q9W4R3); assay: as above
[15] = molecular target: DIP-α K10Q G4S {K81Q G74S}, extracellular region (Drosophila melanogaster) (UniProt Q9W4R3); assay: as above
[16] = molecular target: DIP-α A11T {A82T}, extracellular region (Drosophila melanogaster) (UniProt Q9W4R3); assay: as above
[17] = molecular target: DIP-α K10Q S32D {K81Q S133D}, extracellular region (Drosophila melanogaster) (UniProt Q9W4R3); assay: as above
[18] = molecular target: DIP-α I16A {I91A}, extracellular region (Drosophila melanogaster) (UniProt Q9W4R3); assay: as above
[19] = molecular target: DIP-α A7K {A78K}, extracellular region (Drosophila melanogaster) (UniProt Q9W4R3); assay: as above
[20] = molecular target: DIP-α K10Q {K81Q}, extracellular region (Drosophila melanogaster) (UniProt Q9W4R3); assay: as above
[21] = molecular target: DIP-α N19D {N94D}, extracellular region (Drosophila melanogaster) (UniProt Q9W4R3); assay: as above

DIP-γ (Dpr Interacting Protein gamma), extracellular region (Drosophila melanogaster), sequence (Q9VAR6 entry or part of it): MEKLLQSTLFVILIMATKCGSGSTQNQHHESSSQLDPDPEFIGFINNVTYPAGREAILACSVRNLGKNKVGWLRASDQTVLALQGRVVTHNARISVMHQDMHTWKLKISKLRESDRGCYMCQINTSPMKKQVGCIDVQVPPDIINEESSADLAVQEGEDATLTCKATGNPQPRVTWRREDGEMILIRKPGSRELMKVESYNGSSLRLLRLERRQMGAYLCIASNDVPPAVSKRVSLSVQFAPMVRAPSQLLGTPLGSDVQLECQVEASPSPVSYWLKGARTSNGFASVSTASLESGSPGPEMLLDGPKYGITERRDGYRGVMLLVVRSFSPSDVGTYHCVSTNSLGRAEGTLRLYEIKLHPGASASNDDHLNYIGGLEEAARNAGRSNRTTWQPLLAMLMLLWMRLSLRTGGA

Substance: Dpr10 V31K Q29E (domain or fragment)
fold increase of KD over the V31K single mutant [1]: 2 fold

Substance: Dpr11 K31V (domain or fragment)
Kd [2]: 22.7 µM

Substance: DIP-α K10Q S32D, extracellular region (domain or fragment)
Kd [4]: 60.6 µM and 68.3 µM | Kd ([4]; mean): 64.5 µM

Substance: DIP-α K10Q G4S, extracellular region (domain or fragment)
Kd [5]: 52 µM and 40.6 µM | Kd ([5]; mean): 46.3 µM

Substance: Dpr6 (domain or fragment)
Kd [1]: 2 µM

Substance: DIP-α K10Q {K81Q}, extracellular region (from UniProt Q9W4R3 1-554) (domain or fragment)
Kd [6]: 19.7 µM | stoichiometry N [6]: 2

Substance: Dpr10 V31K (domain or fragment)
fold increase of KD over wild-type Dpr10 [1]: 10 fold

Substance: DIP-α K10Q, extracellular region (domain or fragment)
Kd [7]: 17.8 µM and 21.6 µM | Kd ([7]; mean): 19.7 µM

Substance: DIP-α K10Q S32D {K81Q S133D}, extracellular region (from UniProt Q9W4R3 1-554) (domain or fragment)
Kd [8]: 64.4 µM | stoichiometry N [8]: 2

Substance: Dpr11 K31V {K207V}, extracellular region (from UniProt Q8MRE6 1-360) (domain or fragment)
Kd [9]: > 300 µM | Kd [10]: > 300 µM

Substance: Dpr11 K31V E29Q {K207V E205Q}, extracellular region (from UniProt Q8MRE6 1-360) (domain or fragment)
Kd [9]: > 300 µM | Kd [10]: > 300 µM

Substance: DIP-α K10Q G4S {K81Q G74S}, extracellular region (from UniProt Q9W4R3 1-554) (domain or fragment)
Kd [12]: 46.3 µM | stoichiometry N [12]: 2

More lines, now with the values ahead:

Kd [3]: 19.3 µM
Substance: Dpr10 Q26D {Q138D}, extracellular region (from UniProt M9PF17 1-362) (domain or fragment)

Kd [2]: 131 µM
Substance: Dpr11 K31V,E29Q (domain or fragment)

Kd [9]: 71.6 µM
Substance: Dpr10 V31K Q29E {V144K Q142E}, extracellular region (from UniProt M9PF17 1-362) (domain or fragment)

Kd [9]: 27.8 µM | Kd [11]: 17.6 µM
Substance: Dpr11 K31V E29Q G10L {K207V E205Q G157L}, extracellular region (from UniProt Q8MRE6 1-360) (domain or fragment)

Kd [9]: 52.3 µM
Substance: Dpr10 V31K {V144K}, extracellular region (from UniProt M9PF17 1-362) (domain or fragment)

Kd [13]: 23.5 µM | Kd [14]: 1.1 µM | Kd [15]: 101 µM | Kd [16]: 10.1 µM | Kd [17]: 26.2 µM | Kd [18]: 80.1 µM | Kd [19]: 0.46 µM | Kd [20]: 18.4 µM | Kd [21]: 1.05 µM
Substance: Dpr6 (Defective proboscis extension response 6), extracellular region (from UniProt M9PC40 1-390) (domain or fragment)
